Laboratory results published in article PMC10873206 (Nature Structural & Molecular Biology, 2024).

Columns and labels:
neddylated CUL1–RBX1 = molecular target: T1, neddylated CUL1–RBX1 (human, UniProt Q13616 1-776; P62877 5-108; Q15843 1-76, NEDD8 covalently linked to a conserved cullin lysine (WHB domain) | C terminus covalently linked to the cullin lysine); experiment: cryo-EM structure; trapped chain formation complex: neddylated CUL1–RBX1, SKP1–FBXW7, K48C ubiquitin–cyclin E phosphopeptide, donor ubiquitin(1–75), UBE2R2; SEC-purified; 8.1 Å map, rigid-body fits; conditions: both partners purified
T1 construct: CUL1, human, wild type; RBX1, human, residues 5 to C terminus; NEDD8, human; purified as previously described; also called NEDD8–CUL1–RBX1; neddylated CRL1 core; source: High Five insect cells (baculovirus), co-expressed, purified (GST-sepharose, TEV cleavage, ion exchange, SEC); neddylated as previously described; not shown: GST, N-terminal, cleaved; copies: + +
T1 sequence (Q13616 whole entry, chain 1 of 3, the tested form may be a part): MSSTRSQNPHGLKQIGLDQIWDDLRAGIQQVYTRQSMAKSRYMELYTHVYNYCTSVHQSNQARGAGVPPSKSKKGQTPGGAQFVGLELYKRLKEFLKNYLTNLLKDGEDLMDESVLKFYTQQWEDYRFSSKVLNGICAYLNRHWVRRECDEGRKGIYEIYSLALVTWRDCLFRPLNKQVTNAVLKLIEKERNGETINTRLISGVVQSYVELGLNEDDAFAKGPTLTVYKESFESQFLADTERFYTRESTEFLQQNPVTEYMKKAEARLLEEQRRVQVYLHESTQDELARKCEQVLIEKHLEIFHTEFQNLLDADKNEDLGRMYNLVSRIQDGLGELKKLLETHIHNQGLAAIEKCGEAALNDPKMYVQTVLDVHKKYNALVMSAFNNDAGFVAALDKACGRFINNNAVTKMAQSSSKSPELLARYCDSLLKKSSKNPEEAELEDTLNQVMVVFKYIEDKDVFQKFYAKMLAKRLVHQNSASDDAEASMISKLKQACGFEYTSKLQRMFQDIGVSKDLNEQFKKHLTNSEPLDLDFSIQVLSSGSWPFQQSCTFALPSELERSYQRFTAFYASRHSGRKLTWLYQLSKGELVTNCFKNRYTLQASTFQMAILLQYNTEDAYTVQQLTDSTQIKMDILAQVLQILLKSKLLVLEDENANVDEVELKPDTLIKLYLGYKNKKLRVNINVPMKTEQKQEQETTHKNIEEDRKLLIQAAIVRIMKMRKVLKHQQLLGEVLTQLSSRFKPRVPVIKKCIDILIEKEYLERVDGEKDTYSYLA
T1 sequence (P62877 5-108, chain 2 of 3): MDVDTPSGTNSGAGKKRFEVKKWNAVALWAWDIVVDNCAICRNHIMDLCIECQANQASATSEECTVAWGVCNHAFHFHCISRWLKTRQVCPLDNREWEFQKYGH
T1 sequence (Q15843 1-76, chain 3 of 3): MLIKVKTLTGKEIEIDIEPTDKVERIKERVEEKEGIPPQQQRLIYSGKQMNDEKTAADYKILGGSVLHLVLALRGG

[1] = molecular target: T2, His-ubiquitin(1–75)–BmDPA (human, UniProt P0CG48 1-75, C terminus (residue 75) conjugated to (E)-3-[2-(bromomethyl)-1,3-dioxolan-2-yl]prop-2-en-1-amine (BmDPA), cross-linked to Cys48 of the acceptor ubiquitin and to the UBE2R2 active site cysteine); experiment: cryo-EM structure; trapped chain formation complex: neddylated CUL2–RBX1, Elongin B/C–VHL, PROTAC MZ1, K48C ubiquitin–BRD4 (352–460), donor ubiquitin(1–75), UBE2R2; SEC-purified; 7.5 Å map, rigid-body fits; conditions: both partners purified
T2 construct: ubiquitin, human, residues 1–75; also called UBD; donor ubiquitin

B1: UBE2R2 (enzyme, human, UniProt Q712K3 1-238, looked up)
chain: MAQQQMTSSQKALMLELKSLQEEPVEGFRITLVDESDLYNWEVAIFGPPNTLYEGGYFKAHIKFPIDYPYSPPTFRFLTKMWHPNIYENGDVCISILHPPVDDPQSGELPSERWNPTQNVRTILLSVISLLNEPNTFSPANVDASVMFRKWRDSKGKDKEYAEIIRKQVSATKAEAEKDGVKVPTTLAEYCIKTKVPSNDNSSDLLYDDLYDDDIDDEDEEEEDADCYDDDDSGNEES
notes: UBE2R2, human, wild type; In the trapped cryo-EM complexes the active site Cys93 is cross-linked to the BmDPA ligation mimic; in the di-ubiquitin synthesis assays it is thioesterified to 32P-labelled donor ubiquitin; also called WT (R2); UBE2R2 FL; source: E. coli Rosetta (DE3), purified (nickel-agarose or GST-sepharose, TEV, SEC); not shown: GST or 6xHis (either), N-terminal, cleaved
B1: binds (neddylated CUL1–RBX1); binds [1].
